{
  "source": "paper PMC9266912",
  "about": "“CITF1 Functions Downstream of SPL7 to Specifically Regulate Cu Uptake in Arabidopsis”",
  "key": {"His-SPL7 (SBP domain) [1]": {"molecular_target": "T1, His-SPL7 (SBP domain) (Arabidopsis, UniProt Q8S9G8 122-228)", "T1 sequence": "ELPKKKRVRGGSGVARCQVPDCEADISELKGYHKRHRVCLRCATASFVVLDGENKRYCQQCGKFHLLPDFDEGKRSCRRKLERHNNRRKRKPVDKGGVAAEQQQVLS", "test": "EMSA; Chemiluminescent EMSA Kit (Beyotime), manufacturer's protocol; buffer, salt, pH and temperature not stated", "conditions": "protein: recombinant; tags: 6xHis (pET-28a); label: 5' biotin (probe); blunt"}, "His-SPL7 (SBP domain) [2]": {"molecular_target": "T1, His-SPL7 (SBP domain)", "test": "competition; cold mutant against biotin-N1; Chemiluminescent EMSA Kit (Beyotime), manufacturer's protocol; buffer, salt, pH and temperature not stated", "conditions": "protein: recombinant; tags: 6xHis (pET-28a); blunt"}},
  "data": [
    {"binder": "ProCOPT2-G (dsDNA) DNA 1: GATGATGTACTTGTACTACAGTACAACACATAC DNA 2: GTATGTGTTGTACTGTAGTACAAGTACATCATC", "values": [
      {"measurement": "binding result", "setting": "His-SPL7 (SBP domain) [1]", "value": "binds"}
    ]},
    {"binder": "ProFRO5-G (dsDNA) DNA 1: CTATCATGTACGTTTTTAAGAGTTTCGTACAAATTCACGT DNA 2: ACGTGAATTTGTACGAAACTCTTAAAAACGTACATGATAG", "values": [
      {"measurement": "binding result", "setting": "His-SPL7 (SBP domain) [1]", "value": "binds"}
    ]},
    {"binder": "ProCITF1-G (dsDNA) DNA 1: CCATTTGTACTGCATAAAGACCCCCCACGTACATACAT DNA 2: ATGTATGTACGTGGGGGGTCTTTATGCAGTACAAATGG", "values": [
      {"measurement": "binding result", "setting": "His-SPL7 (SBP domain) [1]", "value": "binds"}
    ]},
    {"binder": "mProCITF1-G (dsDNA) DNA 1: CCATTTGGCCTGCATAAAGACCCCCCACGGCCATACAT DNA 2: ATGTATGGCCGTGGGGGGTCTTTATGCAGGCCAAATGG", "values": [
      {"measurement": "binding result", "setting": "His-SPL7 (SBP domain) [2]", "value": "no binding"}
    ]},
    {"binder": "ProFRO4-G (dsDNA) DNA 1: ACCCGTACAACGTATTCGTTACGAACCAATTTCTA DNA 2: TAGAAATTGGTTCGTAACGAATACGTTGTACGGGT", "values": [
      {"measurement": "binding result", "setting": "His-SPL7 (SBP domain) [1]", "value": "binds"}
    ]}
  ]
}
